According to paper PMC9352680, “A comprehensive thermodynamic model for RNA binding by the Saccharomyces cerevisiae Pumilio protein PUF4”:

T1: PUF4 RNA-binding domain (Saccharomyces cerevisiae, UniProt P25339 537-888)
T1 sequence: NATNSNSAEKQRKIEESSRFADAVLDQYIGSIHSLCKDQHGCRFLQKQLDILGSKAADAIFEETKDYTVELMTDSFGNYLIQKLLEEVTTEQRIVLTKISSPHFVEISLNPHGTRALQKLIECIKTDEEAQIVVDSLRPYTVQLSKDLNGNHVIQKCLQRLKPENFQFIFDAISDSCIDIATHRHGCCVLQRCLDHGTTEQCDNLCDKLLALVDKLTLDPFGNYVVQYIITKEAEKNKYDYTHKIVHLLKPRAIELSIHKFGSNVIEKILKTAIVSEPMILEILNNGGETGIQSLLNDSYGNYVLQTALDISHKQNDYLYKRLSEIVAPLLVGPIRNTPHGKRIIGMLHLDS

B1: Ic_S2_P4E.1_K4.1_C4.1_H4.1_A4.1_[T5C]_[A6T]_[T7C]_F4.1_[T8C]_[A9C]_T4.1 (ssRNA)
RNA: UUUGAUUAAUAUGAUAUCGUUCUUUCUUGUACUCCCUUCUUUCUCGAUAUCAUAUUAAUCUUU
B2: Ic_S2_P4E.1_K4.1_C4.1_H4.1_A4.1_[T5C]_[A6C]_F4.1_[A9G]_T4.1 (ssRNA)
RNA: UUUGAUUAAUAUGAUAUCGUUCUUUCUUGUACCUUGUUCUUUCUCGAUAUCAUAUUAAUCUUU
B3: Ic_S2_P4E.1_K4.1_C4.1_H4.1_A4.1_[T5C]_[A6C]_F4.1_[T8C]_[A9G]_T4.1 (ssRNA)
RNA: UUUGAUUAAUAUGAUAUCGUUCUUUCUUGUACCUCGUUCUUUCUCGAUAUCAUAUUAAUCUUU
B4: Ic_S2_P4E.1_K4.1_C4.1_H4.1_A4.1_[T5C]_[A6C]_[T7C]_F4.1_[T8G]_[A9C]_T4.1 (ssRNA)
RNA: UUUGAUUAAUAUGAUAUCGUUCUUUCUUGUACCCGCUUCUUUCUCGAUAUCAUAUUAAUCUUU
B5: Ic_S2_P4E.1_K4.1_C4.1_H4.1_A4.1_[T5C]_[A6T]_[T7G]_F4.1_[T8C]_[A9T]_T4.1 (ssRNA)
RNA: UUUGAUUAAUAUGAUAUCGUUCUUUCUUGUACUGCUUUCUUUCUCGAUAUCAUAUUAAUCUUU
B6: Ic_S2_P4E.1_K4.1_C4.1_H4.1_A4.1_[T5C]_[A6C]_[T7G]_F4.1_[T8A]_[A9C]_T4.1 (ssRNA)
RNA: UUUGAUUAAUAUGAUAUCGUUCUUUCUUGUACCGACUUCUUUCUCGAUAUCAUAUUAAUCUUU
B7: Ic_S2_P4E.1_K4.1_C4.1_H4.1_A4.1_[T5C]_[A6C]_[T7C]_F4.1_[A9G]_T4.1 (ssRNA)
RNA: UUUGAUUAAUAUGAUAUCGUUCUUUCUUGUACCCUGUUCUUUCUCGAUAUCAUAUUAAUCUUU
B8: Ic_S2_P4E.1_K4.1_C4.1_H4.1_A4.1_[T5C]_[A6T]_[T7C]_F4.1_[T8C]_[A9T]_T4.1 (ssRNA)
RNA: UUUGAUUAAUAUGAUAUCGUUCUUUCUUGUACUCCUUUCUUUCUCGAUAUCAUAUUAAUCUUU
B9: Ic_S2_P4E.1_K4.1_C4.1_H4.1_A4.1_[T5C]_[A6C]_F4.1_[A9T]_T4.1 (ssRNA)
RNA: UUUGAUUAAUAUGAUAUCGUUCUUUCUUGUACCUUUUUCUUUCUCGAUAUCAUAUUAAUCUUU
B10: Ic_S2_P4E.1_K4.1_C4.1_H4.1_A4.1_[T5C]_[A6C]_F4.1_[T8A]_[A9G]_T4.1 (ssRNA)
RNA: UUUGAUUAAUAUGAUAUCGUUCUUUCUUGUACCUAGUUCUUUCUCGAUAUCAUAUUAAUCUUU
B11: Ic_S2_P4E.1_K4.1_C4.1_H4.1_A4.1_[T5C]_[A6C]_F4.1_[T8G]_[A9T]_T4.1 (ssRNA)
RNA: UUUGAUUAAUAUGAUAUCGUUCUUUCUUGUACCUGUUUCUUUCUCGAUAUCAUAUUAAUCUUU
B12: Ic_S2_P4E.1_K4.1_C4.1_H4.1_A4.1_[T5C]_[A6C]_[T7A]_F4.1_[T8A]_[A9C]_T4.1 (ssRNA)
RNA: UUUGAUUAAUAUGAUAUCGUUCUUUCUUGUACCAACUUCUUUCUCGAUAUCAUAUUAAUCUUU
B13: Ic_S2_P4E.1_K4.1_C4.1_H4.1_A4.1_[T5C]_[A6C]_[T7C]_F4.1_[T8C]_[A9T]_T4.1 (ssRNA)
RNA: UUUGAUUAAUAUGAUAUCGUUCUUUCUUGUACCCCUUUCUUUCUCGAUAUCAUAUUAAUCUUU
B14: Ic_S2_P4E.1_K4.1_C4.1_H4.1_A4.1_[T5C]_[A6T]_[T7G]_F4.1_[T8C]_[A9C]_T4.1 (ssRNA)
RNA: UUUGAUUAAUAUGAUAUCGUUCUUUCUUGUACUGCCUUCUUUCUCGAUAUCAUAUUAAUCUUU
B15: Ic_S2_P4E.1_K4.1_C4.1_H4.1_A4.1_[T5C]_[A6C]_F4.1_[A9C]_T4.1 (ssRNA)
RNA: UUUGAUUAAUAUGAUAUCGUUCUUUCUUGUACCUUCUUCUUUCUCGAUAUCAUAUUAAUCUUU
B16: Ic_S2_P4E.1_K4.1_C4.1_H4.1_A4.1_[T5C]_[A6C]_F4.1_[T8C]_[A9T]_T4.1 (ssRNA)
RNA: UUUGAUUAAUAUGAUAUCGUUCUUUCUUGUACCUCUUUCUUUCUCGAUAUCAUAUUAAUCUUU
B17: Ic_S2_P4E.1_K4.1_C4.1_H4.1_A4.1_[T5C]_[A6C]_[T7C]_F4.1_[T8G]_[A9G]_T4.1 (ssRNA)
RNA: UUUGAUUAAUAUGAUAUCGUUCUUUCUUGUACCCGGUUCUUUCUCGAUAUCAUAUUAAUCUUU
B18: Ic_S2_P4E.1_K4.1_C4.1_H4.1_A4.1_[T5C]_[A6T]_[T7G]_F4.1_[A9T]_T4.1 (ssRNA)
RNA: UUUGAUUAAUAUGAUAUCGUUCUUUCUUGUACUGUUUUCUUUCUCGAUAUCAUAUUAAUCUUU
B19: Ic_S2_P4E.1_K4.1_C4.1_H4.1_A4.1_[T5C]_[A6C]_[T7C]_F4.1_T4.1 (ssRNA)
RNA: UUUGAUUAAUAUGAUAUCGUUCUUUCUUGUACCCUAUUCUUUCUCGAUAUCAUAUUAAUCUUU
B20: Ic_S2_P4E.1_K4.1_C4.1_H4.1_A4.1_[T5C]_[A6T]_[T7C]_F4.1_[T8G]_[A9C]_T4.1 (ssRNA)
RNA: UUUGAUUAAUAUGAUAUCGUUCUUUCUUGUACUCGCUUCUUUCUCGAUAUCAUAUUAAUCUUU
B21: Ic_S2_P4E.1_K4.1_C4.1_H4.1_A4.1_[T5C]_[A6G]_F4.1_[A9T]_T4.1 (ssRNA)
RNA: UUUGAUUAAUAUGAUAUCGUUCUUUCUUGUACGUUUUUCUUUCUCGAUAUCAUAUUAAUCUUU
B22: Ic_S2_P4E.1_K4.1_C4.1_H4.1_A4.1_[T5C]_[A6C]_F4.1_[T8C]_[A9C]_T4.1 (ssRNA)
RNA: UUUGAUUAAUAUGAUAUCGUUCUUUCUUGUACCUCCUUCUUUCUCGAUAUCAUAUUAAUCUUU
B23: Ic_S2_P4E.1_K4.1_C4.1_H4.1_A4.1_[T5C]_[A6C]_[T7A]_F4.1_[A9G]_T4.1 (ssRNA)
RNA: UUUGAUUAAUAUGAUAUCGUUCUUUCUUGUACCAUGUUCUUUCUCGAUAUCAUAUUAAUCUUU
B24: Ic_S2_P4E.1_K4.1_C4.1_H4.1_A4.1_[T5C]_[A6G]_F4.1_[A9G]_T4.1 (ssRNA)
RNA: UUUGAUUAAUAUGAUAUCGUUCUUUCUUGUACGUUGUUCUUUCUCGAUAUCAUAUUAAUCUUU

target: T1, PUF4 RNA-binding domain; experiment: Mg; RNA-MaP; 20 mM Na-HEPES pH 7.4, 30 mM KOAc, 0.75 mM MgCl2, 0.1% Tween-20, 5% glycerol, 0.1 mg/mL BSA, 2 mM DTT; 25 C; 0.0125-409.6 nM protein; settings: tags: N-His6-TEV cleaved; C-SNAP kept, Cy3B-labelled; label: tethered on chip by stalled RNA polymerase

Question: How did the Kd turn out when B1 was run?
Answer: The Kd was 242 nM.

Question: Which Kd does the source give for B2 here?
Answer: Its Kd is 14 nM.

Question: Which Kd does the source give for B3 here?
Answer: The Kd was 54.9 nM.

Question: B4 was tested. Which Kd did it give?
Answer: The Kd was 1580 nM.

Question: With B5 as the binder, how does the Kd read?
Answer: The Kd was 157 nM.

Question: How did the Kd turn out when B6 was run?
Answer: Its Kd is 936 nM.

Question: How did the Kd turn out when B7 was run?
Answer: The Kd was 20.2 nM.

Question: With B8 as the binder, how does the Kd read?
Answer: Its Kd is 103 nM.

Question: Which Kd does the source give for B9 here?
Answer: The Kd was 6.99 nM.

Question: Which Kd does the source give for B10 here?
Answer: Its Kd is 77.3 nM.

Question: For B11, which Kd is on record?
Answer: The Kd was 28.4 nM.

Question: With B12 as the binder, how does the Kd read?
Answer: The Kd was 712 nM.

Question: How did the Kd turn out when B13 was run?
Answer: Its Kd is 96.8 nM.

Question: With B14 as the binder, how does the Kd read?
Answer: Its Kd is 467 nM.

Question: How did the Kd turn out when B15 was run?
Answer: Its Kd is 21.5 nM.

Question: B16 was tested. Which Kd did it give?
Answer: Its Kd is 29.7 nM.

Question: With B17 as the binder, how does the Kd read?
Answer: The Kd was 844 nM.

Question: Which Kd does the source give for B18 here?
Answer: Its Kd is 28.6 nM.

Question: Which Kd does the source give for B19 here?
Answer: Its Kd is 1.46 nM.

Question: Which Kd does the source give for B20 here?
Answer: The Kd was 879 nM.

Question: How did the Kd turn out when B21 was run?
Answer: Its Kd is 19.6 nM.

Question: With B22 as the binder, how does the Kd read?
Answer: Its Kd is 79.4 nM.

Question: Which Kd does the source give for B23 here?
Answer: The Kd was 3.21 nM.

Question: With B24 as the binder, how does the Kd read?
Answer: Its Kd is 28.9 nM.
